From the supplement of paper PMC9112550, “Optimization of the antimicrobial peptide Bac7 by deep mutational scanning” (BMC Biology, 2022)

test system: Escherichia coli TOP10; assay: shrunken log2 fold change of peptide-encoding DNA abundance (4.5 h post-induction vs induction); higher = less antimicrobial activity (less host growth inhibition); details: time post-induction: 4.5 h; library: site-saturation at positions 5, 18, 19, 20
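Also: peptides expressed intracellularly from a pBAD plasmid library in pooled LB shake-flask culture, induced with 0.3% L-arabinose, DNA abundance read by NGS, three biological replicates, DESeq2 with apeglm shrinkage.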

Row | Sequence | shrunken log2 fold change
1 | RRIRFRPPRLPRPRPRPCLIPRP | -0.448
2 | RRIRGRPPRLPRPRPRPYFNPRP | -0.439
3 | RRIRLRPPRLPRPRPRPSINPRP | -0.32
4 | RRIRHRPPRLPRPRPRPNCPPRP | -0.152
5 | RRIRNRPPRLPRPRPRPFTIPRP | -0.28
6 | RRIRVRPPRLPRPRPRPQGQPRP | 0.00581
7 | RRIRYRPPRLPRPRPRPEIKPRP | -0.114
8 | RRIRHRPPRLPRPRPRPHTGPRP | -0.226
9 | RRIRHRPPRLPRPRPRPNWQPRP | -0.0282
10 | RRIRCRPPRLPRPRPRPQFWPRP | 0.303
11 | RRIRGRPPRLPRPRPRPCMFPRP | 0.797
12 | RRIRKRPPRLPRPRPRPNANPRP | 0.135
13 | RRIRKRPPRLPRPRPRPRLRPRP | 0.485
14 | RRIRMRPPRLPRPRPRPGDWPRP | 1.33
15 | RRIRCRPPRLPRPRPRPWCHPRP | -0.463
16 | RRIRMRPPRLPRPRPRPYNFPRP | -0.363
17 | RRIRFRPPRLPRPRPRPLRVPRP | -0.108
18 | RRIRSRPPRLPRPRPRPDMSPRP | -0.0189
19 | RRIRSRPPRLPRPRPRPLTKPRP | -0.175
20 | RRIRFRPPRLPRPRPRPECYPRP | -0.155
21 | RRIRSRPPRLPRPRPRPHQLPRP | -0.201
22 | RRIRMRPPRLPRPRPRPMKRPRP | 0.573
23 | RRIRWRPPRLPRPRPRPVGDPRP | 0.33
24 | RRIRKRPPRLPRPRPRPDMRPRP | 0.0676
25 | RRIRKRPPRLPRPRPRPAYGPRP | 0.397

Row | Sequence | shrunken log2 fold change
26 | RRIRNRPPRLPRPRPRPHCSPRP | -0.095
27 | RRIRFRPPRLPRPRPRPARAPRP | 1.31
28 | RRIRWRPPRLPRPRPRPQSVPRP | 0.119
29 | RRIRQRPPRLPRPRPRPRHKPRP | 0.0456
30 | RRIRIRPPRLPRPRPRPMSMPRP | -0.281
31 | RRIRFRPPRLPRPRPRPRLHPRP | 0.0811
32 | RRIRTRPPRLPRPRPRPNWQPRP | 0.0832
33 | RRIRRRPPRLPRPRPRPICDPRP | 0.309
34 | RRIRHRPPRLPRPRPRPQIVPRP | -0.238
35 | RRIRMRPPRLPRPRPRPRPCPRP | 0.586
36 | RRIRERPPRLPRPRPRPDFTPRP | -0.233
37 | RRIRHRPPRLPRPRPRPEALPRP | -0.0062
38 | RRIRMRPPRLPRPRPRPKVNPRP | 0.31
39 | RRIRQRPPRLPRPRPRPDNCPRP | 0.0333
40 | RRIRVRPPRLPRPRPRPTAFPRP | 0.0786
41 | RRIRARPPRLPRPRPRPVTWPRP | 0.291
42 | RRIRVRPPRLPRPRPRPVGLPRP | 0.216
43 | RRIRFRPPRLPRPRPRPLNLPRP | -0.542
44 | RRIRFRPPRLPRPRPRPHIRPRP | -0.113
45 | RRIRGRPPRLPRPRPRPPRIPRP | 0.719
46 | RRIRSRPPRLPRPRPRPIRYPRP | 0.31
47 | RRIRWRPPRLPRPRPRPPTQPRP | 0.312
48 | RRIRDRPPRLPRPRPRPPPFPRP | 0.321
49 | RRIRVRPPRLPRPRPRPCDFPRP | 0.0154
50 | RRIRTRPPRLPRPRPRPNQKPRP | -0.306

Row | Sequence | shrunken log2 fold change
51 | RRIRFRPPRLPRPRPRPVIHPRP | -0.182
52 | RRIRWRPPRLPRPRPRPMITPRP | 0.0975
53 | RRIRMRPPRLPRPRPRPDAKPRP | 0.937
54 | RRIRDRPPRLPRPRPRPRRVPRP | 0.427
55 | RRIRARPPRLPRPRPRPFGCPRP | 0.128
56 | RRIRWRPPRLPRPRPRPCHNPRP | -1.64
57 | RRIRRRPPRLPRPRPRPRKRPRP | 0.859
58 | RRIRTRPPRLPRPRPRPILCPRP | -0.0876
59 | RRIRMRPPRLPRPRPRPTKVPRP | 0.126
60 | RRIRVRPPRLPRPRPRPGEGPRP | 0.62
61 | RRIRWRPPRLPRPRPRPQRHPRP | 0.163
62 | RRIRKRPPRLPRPRPRPGWMPRP | 0.269
63 | RRIRSRPPRLPRPRPRPEFFPRP | -0.0464
64 | RRIRGRPPRLPRPRPRPKWIPRP | 0.118
65 | RRIRPRPPRLPRPRPRPTNFPRP | 0.221
66 | RRIRARPPRLPRPRPRPWLSPRP | 0.18
67 | RRIRRRPPRLPRPRPRPEWGPRP | 0.0686
68 | RRIRPRPPRLPRPRPRPTLVPRP | 0.114
69 | RRIRYRPPRLPRPRPRPRKPPRP | 0.0457
70 | RRIRDRPPRLPRPRPRPARRPRP | 0.59
71 | RRIRGRPPRLPRPRPRPAVEPRP | 1.21
72 | RRIRRRPPRLPRPRPRPRRDPRP | 0.19
73 | RRIRARPPRLPRPRPRPRIYPRP | -0.0488
74 | RRIRKRPPRLPRPRPRPFYFPRP | 0.00515
75 | RRIRERPPRLPRPRPRPRRDPRP | 0.0233
